Results taken from paper PMC11931385, “Structural and functional analysis of cancer-associated missense variants in the retinoblastoma protein pocket domain” (The Journal of Biological Chemistry, 2025).
No end group written: not given here. TMR = tetramethyl rhodamine dye

T1: Rb^P E539D (human, UniProt P06400 380-788, E539D)
T1 construct: also called variant 24
T1 sequence (looked up): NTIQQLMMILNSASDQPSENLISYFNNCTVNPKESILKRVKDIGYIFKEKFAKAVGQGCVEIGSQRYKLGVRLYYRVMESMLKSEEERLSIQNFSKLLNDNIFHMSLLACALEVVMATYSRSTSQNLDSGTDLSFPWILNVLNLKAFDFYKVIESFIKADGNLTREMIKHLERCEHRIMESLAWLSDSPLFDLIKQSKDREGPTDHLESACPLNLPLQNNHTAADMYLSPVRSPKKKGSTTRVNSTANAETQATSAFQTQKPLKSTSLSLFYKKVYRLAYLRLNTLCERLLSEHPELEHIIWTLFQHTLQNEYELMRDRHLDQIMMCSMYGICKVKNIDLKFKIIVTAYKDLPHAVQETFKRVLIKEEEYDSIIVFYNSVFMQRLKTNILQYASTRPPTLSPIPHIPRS

T2: Rb^P L572I (human, UniProt P06400 380-788, L572I)
T2 construct: also called variant 31
T2 sequence (looked up): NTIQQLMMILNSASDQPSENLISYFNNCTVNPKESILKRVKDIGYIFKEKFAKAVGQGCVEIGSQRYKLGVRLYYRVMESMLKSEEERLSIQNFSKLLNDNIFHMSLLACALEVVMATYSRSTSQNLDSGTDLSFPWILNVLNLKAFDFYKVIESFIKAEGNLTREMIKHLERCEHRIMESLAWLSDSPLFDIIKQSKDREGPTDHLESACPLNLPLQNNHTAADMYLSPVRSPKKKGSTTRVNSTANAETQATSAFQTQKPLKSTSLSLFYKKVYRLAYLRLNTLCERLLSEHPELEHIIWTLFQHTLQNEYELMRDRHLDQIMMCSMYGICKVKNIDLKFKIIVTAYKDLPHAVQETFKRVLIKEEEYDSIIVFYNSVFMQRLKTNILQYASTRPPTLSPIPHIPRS

T3: Rb^P H673P (human, UniProt P06400 380-788, H673P)
T3 construct: also called variant 54
T3 sequence (looked up): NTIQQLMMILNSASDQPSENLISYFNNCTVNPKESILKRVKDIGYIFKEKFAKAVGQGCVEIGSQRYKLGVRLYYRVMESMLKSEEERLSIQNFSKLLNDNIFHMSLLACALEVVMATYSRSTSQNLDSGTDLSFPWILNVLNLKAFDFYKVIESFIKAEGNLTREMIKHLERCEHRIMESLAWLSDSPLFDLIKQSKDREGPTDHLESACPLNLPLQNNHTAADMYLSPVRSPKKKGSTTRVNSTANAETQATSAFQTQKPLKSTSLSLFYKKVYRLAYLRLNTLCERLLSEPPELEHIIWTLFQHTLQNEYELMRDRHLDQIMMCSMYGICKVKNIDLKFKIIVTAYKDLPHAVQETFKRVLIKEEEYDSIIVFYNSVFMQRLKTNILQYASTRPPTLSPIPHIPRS

T4: Rb^P A488V (human, UniProt P06400 380-788, A488V)
T4 construct: also called variant 14
T4 sequence (looked up): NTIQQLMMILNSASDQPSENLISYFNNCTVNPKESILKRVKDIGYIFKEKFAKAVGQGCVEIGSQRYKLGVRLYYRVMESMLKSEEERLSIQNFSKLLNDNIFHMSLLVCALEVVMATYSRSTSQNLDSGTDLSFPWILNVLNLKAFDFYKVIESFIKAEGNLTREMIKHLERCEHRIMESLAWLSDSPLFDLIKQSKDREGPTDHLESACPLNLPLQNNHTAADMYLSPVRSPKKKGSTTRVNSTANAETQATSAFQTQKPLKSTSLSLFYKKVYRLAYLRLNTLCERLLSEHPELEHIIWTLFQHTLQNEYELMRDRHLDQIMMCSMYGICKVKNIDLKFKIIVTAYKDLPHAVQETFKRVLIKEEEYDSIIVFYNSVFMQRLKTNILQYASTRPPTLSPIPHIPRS

T5: Rb^P E533K (human, UniProt P06400 380-788, E533K)
T5 construct: also called variant 22
T5 sequence (looked up): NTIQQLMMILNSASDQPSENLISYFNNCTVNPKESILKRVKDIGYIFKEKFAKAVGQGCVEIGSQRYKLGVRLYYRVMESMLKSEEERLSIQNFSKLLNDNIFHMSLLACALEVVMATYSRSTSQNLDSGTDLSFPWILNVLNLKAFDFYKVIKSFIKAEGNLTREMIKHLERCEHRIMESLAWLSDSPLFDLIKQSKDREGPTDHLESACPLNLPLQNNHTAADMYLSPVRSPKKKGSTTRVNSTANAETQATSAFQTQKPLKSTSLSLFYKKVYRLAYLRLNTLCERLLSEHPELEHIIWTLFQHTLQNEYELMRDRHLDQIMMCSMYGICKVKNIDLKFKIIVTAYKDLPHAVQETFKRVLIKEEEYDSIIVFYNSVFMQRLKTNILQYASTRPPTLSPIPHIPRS

B1: TMR-E2F1^TD, peptide of the E2F1 transactivation domain (peptide)
peptide: {TMR}-GEGIRDLFDCDFGDLTPLD
notes: also called E2F^TD; source: synthetic peptide, bought: GenScript
B2: TMR-E7^LxCxE, LxCxE peptide of the E7 oncoprotein from HPV (peptide)
peptide: DLYCYEQLN
modifications: also: TMR label, position not given here
notes: source: synthetic peptide, bought: GenScript

Experiments:
Assay in all cases: fluorescence polarisation; 25 °C; unlabeled Rb^P titrated against 1.5 nM TMR-E2F1^TD or 7.5 nM TMR-E7^LxCxE; 25 mM Tris pH 8.0, 200 mM NaCl, 1 mM DTT, 0.1% Tween-20; 2 min incubation; quadratic fit; apparent Kd for the variants, Kd for WT
Conditions in all cases: both partners purified
Rb^P E539D = molecular target: T1, Rb^P E539D
Rb^P L572I = molecular target: T2, Rb^P L572I
Rb^P H673P = molecular target: T3, Rb^P H673P
Rb^P A488V = molecular target: T4, Rb^P A488V
Rb^P E533K = molecular target: T5, Rb^P E533K

Binder	Kd (Rb^P E539D)	Kd (Rb^P L572I)	Kd (Rb^P H673P)	Kd (Rb^P A488V)	Kd (Rb^P E533K)
B1	55 nM	37 nM	42 nM	53 nM	810 nM
B2	7 nM	4 nM	24 nM	9 nM	6 nM
